# Data as given in the DeepSol protein solubility set.
# Assay: soluble on expression in E. coli; label from the status in PepcDB or PDB records
row,Sequence,soluble on expression in E. coli
1,MSLSVPLLSRVGADRADRLRTDMEAAAAGWPGAALLRVDSRNRVLVANGRVLLGAAIELADKPPPEAVFLGRVEGGRHVWAVRAALQPIADPDIPAEAVDLRGLGRIMDDTSSQLVSSASALLNWHDNARFSALDGAPTKPARAGWSRVNPITGHEEFPRIDPAVICLVHDGADRAVLARQAAWPERMFSLLAGFVEAGESFEVCVAREIREEIGLTVRDVRYLGSQQWPFPRSLMVGFHALGDPDEEFSFSDGEIAEAAWFTRDEVRAALAAGDWSSASESKLLLPGSISIARVIIESWAACEEGHHHHHH,soluble
2,MILKKDDRMYTKKPTIPENVIERAYKGKCTKEDALLLLEGNPFELFELANDLRAIAAGDTVSYVVNRNIYITNKCVGNCGFCAYRTEKGYILSIEEILKKAGDARKAGAVEVCVQGGYTPEADMEFYLEVIESLKAEYPDLCLHALSPMEVNYAAETSGMSVEEALRRLKKSGLDSLTGTSAEILSDRVRKIICPSKISTQQWIDTVTAAHKAGISTNATIMYGHVETLKERLDHVFTIREIQKETGGFTELIPMSFLPYNNPVGEKMLASGKFSSTGLEDLQLIAISRVILHTYVKNIQATWVKLGKKLAQVALQCGANDLGGTLMEDQISTASGGSHGEYVSPAEFEWMIKGAGRVPVQR,not soluble
3,MDNSGKEAEAMALLAEAERKVKNSQSFFSGLFGGSSKIEEACEIYARAANMFKMAKNWSAAGNAFCQAAQLHLQLQSKHDAATCFVDAGNAFKKADPQEAINCLMRAIEIYTDMGRFTIAAKHHISIAEIYETELVDIEKAIAHYEQSADYYKGEESNSSANKCLLKVAGYAALLEQYQKAIDIYEQVGTNAMDSPLLKYSAKDYFFKAALCHFCIDMLNAKLAVQKYEELFPAFSDSRECKLMKKLLEAHEEQNVDSYTESVKEYDSISRLDQWLTTMLLRIKKTIQGDEEDLR,soluble
4,MAHHHHHHMQRYLQRTVPVAPLRLSISGNSSTEGVHADAAPLLESRFLRRLRAEVDREARAEQLCKGTAARAIQQAFRRWAQTRQLQHRHLSIHGIVRPRCEFDPIRAAELDAALCSIQASLRVWASSRLVEARRLKLLQQITSSVLDPACRTTLRCAASIRHINDRQLREVLCRQEAVERRDLLRRHFVFLVCCHQAFFNDPRMWDAGMSIRRIPLYTHHGLLSAETLPVIWGTRTSSSTLNSATEDSVALRGDAVASPLPPESSSFSVTATVDGCIKGWGSPAEPGSSLLEAVGSDWLVGKEEDGGGFDIDAALRLGEYRLLFSPEEWRLLKKLKASSPHPASPLLSSGADGRRAARDAAGLPEAEAGALAAPRGQLQMAPTEAAAKSACSLSYAKAFASALTFLRQPRMVDPSVRCTVQRLNDIRSSTLEMQQELRVHGYLFAAQVAPLLILGFHYQGLARGDADLSCFTTTSAMKTCRPLVAGRVACAATELRRCLIGAVHYSGGAAESVLPVALEEHKCSGKAAARTLSQRLPPAGVSRSMLLPPRAAPTAGLMRDGFANPGTEALYHAPAKTTRRAGGADPRCGSSHTASRHGSAIRVALAAEWSRRLASSADEVGPYWCEFLSSTGLDGLVTAAGRRGETPGEADAAYQTRASLPSPPLPTRVRRGLESHLVHGGSSYLLQDFMPSLMRRRAHSRAGPQPLDAATGSVVVAVACAGASPSTSVSTSTCGMVHAGEWWDAVERLLLREYTNRRELLTNEAVQRSSIDILRCTAHPSADESVAGV,not soluble
5,GSTDSLPGKFEDMYKLTSELLGEGAYAKVQGAVSLQNGKEYAVKIIEKQAGHSRSRVFREVETLYQCQGNKNILELIEFFEDDTRFYLVFEKLQGGSILAHIQKQKHFNEREASRVVRDVAAALDFLHTKGIAHRDLKPENILCESPEKVSPVKICDFDLGSGMKLNNSCTPITTPELTTPCGSAEYMAPEVVEVFTDQATFYDKRCDLWSLGVVLYIMLSGYPPFVGHCGADCGWDRGEVCRVCQNKLFESIQEGKYEFPDKDWAHISSEAKDLISKLLVRDAKQRLSAAQVLQHPWVQGQAPEKG,soluble
6,MKPPICRRMSLPPVLAKKEGERIQVPEGGELVCYRNQEDQHLFLKIEYSRETMIKLSSSVFCYARPTGLKEVSDELPELLGLPHSIPLTDSPPNFECLPEPLAHVSGCNSHFSMNHPPPLLSPLRGPVTEADEAMRTLSSHRELQKRLQNMSMRGELSPSGCLVDSCDTPAIRQIRNPQFT,not soluble
7,MGSDKIHHHHHHMTSVTPCASSSSEMNDFLQAHPDTQYVDLLISDMNGVVRGKRIERASLHKVYEKGINLPASLFALDINGSTVESTGLGLDIGDADRICFPIPGTLSDEPWQKRPTAQLLMTMHELDGQPFFADPREVLRQVVSKFDDLGLTICAAFELEFYLIDQDNLNGRPQPPRSPISGKRPQSTQVYLIDDLDEYADCLQDMLEAAKEQGLPADAIVKESAPAQFEVNLHHVADPLKACDYAILLKRLIKNVAYDHEMDTTFMAKPYPGQAGNGLHVHISLLDKKTGKNIFASDDPLQSDTLRHAIGGVLETMPASMAFLCPNINSYRRFGAQFYVPNAPSWGLDNRTVAVRVPTDSSENVRLEHRVAGADANPYLMLAAILAGVHHGLTNKVEPEAPIEGNSYEQLEQSLPNNLRDALRALDDSEVLNQYISPDYIDIFVACKESELAEFEVSISDLEYNWYLHTV,not soluble
8,MADTIEVDGKQFAVDEEGYLSNLNDWVPGVADVMAKQDNLELTEEHWDIINFLREYYEEYQIAPAVRVLTKAVGKKLGKEKGNSKYLYSLFPYGPAKQACRFAGLPKPTGCV,soluble
9,MSNAFEYLRTYVESTTETDAAVARAREDAAEFGLPAPDEMTGQLLTTLAATTNGNGSTGAIAITPAAGLVGLYILNGLADNTTLTCIDPESEHQRQAKALFREAGYSPSRVRFLLSRPLDVMSRLANDSYQLVFGQVSPMDLKALVDAAWPLLRRGGALVLADALLDGTIADQTRKDRDTQAARDADEYIRSIEGAHVARLPLGAGLTVVTKALEHHHHHH,soluble
10,MGSDKIHHHHHHMKQIKIGTCVPGPVAEEWLKGFVGKGFETFSLNFHMSLEGTDLDKLALSTEQILAGTDSKITTLGYYCNPIQYPEHRKTLEKVICTAEKFGATHVSTFAGAWEGKPVESAYEEFGKVFRELAELAEEKGVKLGIENCLMDGTWEHATCNIGFNPKAWEVMFEEVKNDNFGLEWEPTHQMVQLIDPVTELRKWCKKIVHVHGKDATIDWDAVRHGGISGAVPFVWHRMPGFGDTNWRDIISILRSNGYEDDICIEGYHDPVYRGELEMTGQLHALNYLKWCRGGEFTPTPWEK,not soluble
11,MTKLAVVGATGLVGTKMLETLNRKNIPFDELVLFSSARSAGQEVEFQEKTYTVQELTDARASEHFDYVLMSAGGGTSEHFAPLFEKAGAIVIDNSSQWRMAEDIDLIVPEVNEPTFTRGIIANPNCSTIQSVVPLKVLQDAYGLKRVAYTTYQAVSGSGMKGKKDLAEGVNGKAPEAYPHPIYNNVLPHIDVFLENGYTKEEQKMIDETRKILNAPDLKVTATCARVPVQDSHSVEIDVTLDKETTAEDIKALFDQDDRVVLVDNPENNEYPMAINSTNKDEVFVGRIRRDDSLENTFHVWCTSDNLLKGAALNAVQVLEQVMRLKGAN,soluble
12,FTLRLNSTEMPMSDLIEVELLTGKQLLLVEPNMQAASVTQQILSQEGILVTYRSSLPENEEHYDYVLLNLAANQTYDEQSVAAWIEQAKRMAPSVIMGTPSTELALADQIMTEHQIQCLTKPLSRRKLLQS,not soluble
13,MSLKHEQIINEKIIIDTSIFTNPEVYQTFGNDPTDALRSFLEIISKLKGPIFYMPQTIYEELLNFVEIKDIQVDLQMLLQQKSPKRYELTVPAFLLYELIEDVRLRIDKGLRVAETAVRETSPDTEPEAIANLRKKYRMALREGIIDSKEDVDLILLAKEMDGIMMTADTGIVKWADKLGIRYIDPRMLRSILDKLAAASEGHHHHHH,soluble
14,MGSDKIHHHHHHMAFWQSKTLTEMTSQEWESLCDGCGKCCLNKLIDDETEELYYTNAACLLLDHQTTSCQHYSDRFRYVPQCTVITAQNVHELTWLPDSCAYRRLAAGRALPSWHPLLTGSKDAMHLAGMSIQGKVVDERRVKDIEDHIVLWPLKDLD,not soluble
15,NSMAEFQYNLNLEEEKKQLEIENLCFENMKKQMEFTRRARHDLKHHMKAVHTMAENNECKKITEYIETYLEHVSLKKPLVYCTNFTLNALIVYYVQQAEAHKIKLKLNIELPEETNVKEADLTVLFGNLLENAIDACDEVQENKRYINLKIYKPNSDSIVFYIENGFNGSIKKKNQQFLTTKANGNGIGIESVKYVVHKYNGDVNIKTDENKFIVSGVLLQPLDATK,not soluble
16,MAHHHHHHMVMNDITKSDTHERKDEVTMDKGGMFNNFFECMNEQMKRIDRYHEDMSRMMNSMRTHYFSDELSKYFPSRRSLLDYDLGDARRNDLFFGKPQFLMDRFKNVPPMDVVDKDKEIEIKIDVPGLSKDNVQINLYNRNLEVSGDFKKTEETRDDEQRYYVKERSQTSFYRSFQLPENVCEDNIKATFKDGVLKIDIPKKDVLPEKKKKIEIQ,soluble
17,MANVYDLANELERAVRALPEYQAVLTAKSAIESDADAQVLWQDFLATQSKVQEMMQSGQMPSQEEQDEMSKLGEKIESNDLLKVYFDQQQRLSVYMSDIEKIVFAPMQDLM,not soluble
18,MAQTDKPTCIPPELPKMLKEFAKAAIRVQPQDLIQWAADYFEALSRGETPPVRERSERVALCNRAELTPELLKILHSQVAGRLIIRAEELAQMWKVVNLPTDLFNSVMNVGRFTEEIEWLKFLALACSALGVTITKTLKIVCEVLSCDHNGGSPRIPFSTFQFLYTYIAKVDGEISASHVSRMLNYMEQEVIGPDGIITVNDFTQNPRVQLE,soluble
19,MGSDKIHHHHHHMIRFENISKQNSHRILFLDSSAALNRGEKIGLVGPNGAGKTTLFRMITGEEVPDAGQVSIEKQVSIGYFNQDVGEMSGRSAVAEVMDGAGPVSSVAAEMAELEAAMCDPDRDDMDAVVERYGEVQARFEELGGYELEGRAREVLAGLSFSQEMMDGDVGALSGGWKMRVALGRILLMRPDAMLLDEPSNHLDIESLIWLEEFLKGYDGALLMTSHDREFLNRIVTKIIEIDGGSLNTYSGDYAFFERQRAQNEKQQQAQFERQQAMLAKEIKFIERFKARASHAAQVQSRVKKLDKIERFEPPRRRQTVSFDFPPAPRSGDDVAVFKSVHKGYGSRAIYQGLDLIIRRKERWCVMGVNGAGKSTLLKLVAGAADPDSGTVTVGASVKMGYFSQHAMELLDGERTVYESLEDRFPQANQGSLRTLAGCFGFSGDDVEKKCRVLSGGEKARLVMAIMLYNPPNFLVLDEPTNHLDLDTKQMLIAALANYEGTMLFVSHDRHFLAALSNRVLELTPEGVHQYSGGYTEYVARTGHEAPGLRS,not soluble
20,MSLTQHTLWLLRFTYKQLKEKLTVSDSKKLFHEQFPYVIPGLYKRIVDEMLVELNLLNHQNEFIQDDLFCVGLTETFKELTKGYKPEEHLRVLFESLCNSSNFEPKKIKEASKKTLEVYKDKSLKEISILLKQKSDSNLYSSRIMNLGIYLIIANATDFKDIKDPEKNKIISDIINKLNLSFNKAEKDIGIYKSSILKMEQAKELLQEAKIKDKKEKEGHHHHHH,not soluble
21,MAGDPMRMVAHRFLRPQEAHMQVLVRDNNVDQALRILKKKLQREGVFREMRLREAFEKPSIKKAREKAEAIGRQRKLARKQMQREGLLPTKPRKDKLEHHHHHH,not soluble
22,MGSDKIHHHHHHMSDLKSLATKFASDHESGKLLVLPTVWDTWSAGLVEEAGFSGLTIGSHPVADATGSSDGENMNFADYMAVVKKITSAVSIPVSVDVESGYGLSPADLIAQILEAGAVGINVEDVVHSEGKRVREAQEHADYIAAARQAADVAGVDVVINGRTDAVKLGADVFEDPMVEAIKRIKLMEQAGARSVYPVGLSTAEQVERLVDAVSVPVNITAHPVDGHGAGDLATLAGLGVRRVTFGPLWQKWLAATSAQQLKGWA,not soluble
